Source: article PMC4488392 (2015)

Target: HD5
Test: SPR

B1: HLA-B27 heavy chain homodimer (B27_(2)), recombinant HLA-B*2705 homodimer complex (complex)
chain 1: GSHSMRYFHTSVSRPGRGEPRFITVGYVDDTLFVRFDSDAASPREEPRAPWIEQEGPEYWDRETQICKAKAQTDREDLRTLLRYYNQSEAGSHTLQNMYGCDVGPDGRLLRGYHQDAYDGKDYIALNEDLSSWTAADTAAQITQRKWEAARVAEQLRAYLEGECVEWLRRYLENGKETLQRADPPKTHVTHHPISDHEATLRCWALGFYPAEITLTWQRDGEDQTQDTELVETRPAGDRTFQKWAAVVVPSGEEQRYTCHVQHEGLPKPLTLRWEPSSQSTVPIV
chain 2: SRYWAIRTR
modifications: biotinylated (site not stated)
Q: For B1, which Kd is on record?
A: 0.32 nM
